Measurements from patent US20140242080A1 (Hoffmann-La Roche, published 2014).
Substitutions are numbered along the chain they refer to.

T1: hu-MCSP(D3 domain)-avi-his (human, UniProt Q6UVK1 1582-2224)
T1 construct: Recombinant D3 domain with avi and his tags; also called human MCSP(D3 domain)-avi-his; Human MCSP D3
T1 sequence: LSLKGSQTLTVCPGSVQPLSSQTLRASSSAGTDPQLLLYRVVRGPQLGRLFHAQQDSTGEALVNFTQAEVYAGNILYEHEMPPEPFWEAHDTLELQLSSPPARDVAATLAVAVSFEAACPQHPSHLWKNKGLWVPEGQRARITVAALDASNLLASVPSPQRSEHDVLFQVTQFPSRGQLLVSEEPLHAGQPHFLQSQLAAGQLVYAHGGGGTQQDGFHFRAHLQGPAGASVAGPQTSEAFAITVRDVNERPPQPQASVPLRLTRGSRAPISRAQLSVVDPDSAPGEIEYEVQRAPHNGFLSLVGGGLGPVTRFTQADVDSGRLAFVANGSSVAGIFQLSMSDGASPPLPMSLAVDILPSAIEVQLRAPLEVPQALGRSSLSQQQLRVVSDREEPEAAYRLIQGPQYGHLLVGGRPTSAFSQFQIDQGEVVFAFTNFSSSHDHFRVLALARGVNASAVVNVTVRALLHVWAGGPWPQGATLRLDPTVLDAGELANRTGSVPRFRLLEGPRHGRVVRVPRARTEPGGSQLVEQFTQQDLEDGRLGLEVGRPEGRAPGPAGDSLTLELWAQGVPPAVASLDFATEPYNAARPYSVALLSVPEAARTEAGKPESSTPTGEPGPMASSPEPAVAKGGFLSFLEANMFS

T2: cynomolgus MCSP D3 (cynomolgus, UniProt Q6UVK1 1582-2224 (human entry), limits assumed)
T2 construct: also called Cyno MCSP; cynomolgus homologue
T2 chain: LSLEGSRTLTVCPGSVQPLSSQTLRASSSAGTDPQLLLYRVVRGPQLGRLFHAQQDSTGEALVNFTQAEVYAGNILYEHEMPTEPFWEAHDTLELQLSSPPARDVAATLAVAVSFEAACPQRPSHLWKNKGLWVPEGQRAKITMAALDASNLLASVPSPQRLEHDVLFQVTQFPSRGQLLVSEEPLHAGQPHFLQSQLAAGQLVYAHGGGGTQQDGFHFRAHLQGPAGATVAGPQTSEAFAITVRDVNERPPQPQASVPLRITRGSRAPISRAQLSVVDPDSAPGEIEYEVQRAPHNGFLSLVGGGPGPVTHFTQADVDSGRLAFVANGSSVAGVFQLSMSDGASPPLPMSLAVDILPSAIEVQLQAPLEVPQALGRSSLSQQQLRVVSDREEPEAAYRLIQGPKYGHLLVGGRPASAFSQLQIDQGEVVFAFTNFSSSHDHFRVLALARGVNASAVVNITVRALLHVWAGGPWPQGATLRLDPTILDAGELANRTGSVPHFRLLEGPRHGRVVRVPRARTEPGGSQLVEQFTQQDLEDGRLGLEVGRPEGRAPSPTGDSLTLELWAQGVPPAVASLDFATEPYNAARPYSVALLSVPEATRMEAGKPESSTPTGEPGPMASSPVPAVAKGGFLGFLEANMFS

B1: M4-3(A7)/ML2(E10) IgG (antibody, V domains shown)
VH: QVQLQESGPGLVKPSQTLSLTCTVSGGSITDGYYWNWIRQHPGKGLEWIGYITFDGRNNYNPSLKSRVTISRDTSKNQFSLKLSSVTAADTAVYYCADFDYWGQGTLVTVSS
VL: DIQMTQSPSSLSASVGDRVTITCRASYGIRGYLNWYQQKPGKAPKLLIYYTSSLHSGVPSRFSGSGSGTDFTLTISSLQPEDFATYHCQQYSKLPWTFGQGTKVEIK
notes: Human IgG1
B2: M4-3(C1)/ML2 IgG (antibody, V domains shown)
VH: B1 VH with D31S, R57S
VL: DIQMTQSPSSLSASVGDRVTITCRASQGIRNYLNWYQQKPGKAPKLLIYYTSSLHSGVPSRFSGSGSGTDFTLTISSLQPEDFATYYCQQYSKLPWTFGQGTKVEIKR
notes: Human IgG1; copies: 2 + 2
B3: M4-(A7)/ML2(C5) IgG (antibody, V domains shown)
VH: B1 VH
VL: B1 VL with Y27R, G31E, S52G, H87Y, K93E
notes: Human IgG1; also called M4-3(A7)/ML2(C5)
B4: M4-3/ML2(E10/G3) IgG (antibody, V domains shown)
VH: B1 VH with D31S, F54Y, R57S
VL: B1 VL with K93A
notes: Human IgG1
B5: M4-3/ML2(E10) IgG (antibody, V domains shown)
VH: B1 VH with D31S, F54Y, R57S
VL: B1 VL
notes: Human IgG1
B6: M4-3(B8)/ML2 IgG (antibody, V domains shown)
VH: B1 VH with D31S
VL: B1 VL with Y27Q, G31N, H87Y
notes: Human IgG1
B7: M4-3/ML2(C5) IgG (antibody, V domains shown)
VH: B1 VH with D31S, F54Y, R57S
VL: B1 VL with Y27R, G31E, S52G, H87Y, K93E
notes: Human IgG1
B8: M4-3(D6)/ML2 IgG (antibody, V domains shown)
VH: B1 VH with D31S, R57K
VL: B1 VL with Y27Q, G31N, H87Y
notes: Human IgG1
B9: M4-3/ML2(C5/G3) IgG (antibody, V domains shown)
VH: B1 VH with D31S, F54Y, R57S
VL: B1 VL with Y27R, G31E, S52G, H87Y, K93A
notes: Human IgG1
B10: M4-3/ML2(G3) IgG (antibody, V domains shown)
VH: B1 VH with D31S, F54Y, R57S
VL: B1 VL with Y27Q, G31N, F71Y, H87Y, K93A
notes: Human IgG1
B11: M4-3(B7)/ML2 IgG (antibody, V domains shown)
VH: B1 VH with D31S, R57I
VL: B1 VL with Y27Q, G31N, H87Y
notes: Human IgG1
B12: M4-3(A7)/ML2 IgG (antibody, V domains shown)
VH: B1 VH
VL: B1 VL with Y27Q, G31N, H87Y
notes: Human IgG1
B13: M4-3(A7)/ML2(G3) IgG (antibody, V domains shown)
VH: B1 VH
VL: B1 VL with Y27Q, G31N, F71Y, H87Y, K93A
notes: Human IgG1
B14: 1 + 1 IgG Crossfab; VL/VH exchange (LC007/V9) (anti-MCSP/anti-huCD3) (bispecific antibody)
chain 1: DIVLTQSPSSLSASLGDRVTISCSASQGIRNYLNWYQQRPDGTVKLLIYYTSSLHSGVPSRFSGSGSGTDYSLTISNLEPEDIATYYCQQYSKLPWTFGGGTKLEIKRTVAAPSVFIFPPSDEQLKSGTASVVCLLNNFYPREAKVQWKVDNALQSGNSQESVTEQDSKDSTYSLSSTLTLSKADYEKHKVYACEVTHQGLSSPVTKSFNRGEC
chain 2: DIQMTQSPSSLSASVGDRVTITCRASQDIRNYLNWYQQKPGKAPKLLIYYTSRLESGVPSRFSGSGSGTDYTLTISSLQPEDFATYYCQQGNTLPWTFGQGTKVEIKSSASTKGPSVFPLAPSSKSTSGGTAALGCLVKDYFPEPVTVSWNSGALTSGVHTFPAVLQSSGLYSLSSVVTVPSSSLGTQTYICNVNHKPSNTKVDKKVEPKSCGGGGSGGGGSEVQLQESGPGLVKPSQSLSLTCSVTGYSITSGYYWNWIRQFPGNKLEWMGYITYDGSNNYNPSLKNRISITRDTSKNQFFLKLNSVTTEDTATYYCADFDYWGQGTTLTVSSASTKGPSVFPLAPSSKSTSGGTAALGCLVKDYFPEPVTVSWNSGALTSGVHTFPAVLQSSGLYSLSSVVTVPSSSLGTQTYICNVNHKPSNTKVDKKVEPKSCDKTHTCPPCPAPEAAGGPSVFLFPPKPKDTLMISRTPEVTCVVVDVSHEDPEVKFNWYVDGVEVHNAKTKPREEQYNSTYRVVSVLTVLHQDWLNGKEYKCKVSNKALGAPIEKTISKAKGQPREPQVCTLPPSRDELTKNQVSLSCAVKGFYPSDIAVEWESNGQPENNYKTTPPVLDSDGSFFLVSKLTVDKSRWQQGNVFSCSVMHEALHNHYTQKSLSLSPGK
chain 3: EVQLVESGGGLVQPGGSLRLSCAASGYSFTGYTMNWVRQAPGKGLEWVALINPYKGVSTYNQKFKDRFTISVDKSKNTAYLQMNSLRAEDTAVYYCARSGYYGDSDWYFDVWGQGTLVTVSSASVAAPSVFIFPPSDEQLKSGTASVVCLLNNFYPREAKVQWKVDNALQSGNSQESVTEQDSKDSTYSLSSTLTLSKADYEKHKVYACEVTHQGLSSPVTKSFNRGEC
chain 4: not shown

Columns and labels:
[1] = target: T1, hu-MCSP(D3 domain)-avi-his; experiment: SPR ProteOn XPR36, 25 C; IgG captured via anti-human F(ab')2, MCSP D3 as analyte
cynomolgus MCSP D3 [2] = target: T2, cynomolgus MCSP D3; experiment: as above
[3] = target: T1, hu-MCSP(D3 domain)-avi-his; experiment: ratio of ProteOn IgG KD, parent M4-3/ML2 against variant
cynomolgus MCSP D3 [4] = target: T2, cynomolgus MCSP D3; experiment: as above
[5] = target: human MCSP expressed on tumor cells (Colo-38, WM266-4, A375, MV-3, HCT-116) (human, UniProt Q6UVK1 30-2322); experiment: cell-based or functional assay
human MCSP expressed on tumor cells (Colo-38, WM266-4, A375, MV-3, HCT-116), sequence (Q6UVK1 30-2322): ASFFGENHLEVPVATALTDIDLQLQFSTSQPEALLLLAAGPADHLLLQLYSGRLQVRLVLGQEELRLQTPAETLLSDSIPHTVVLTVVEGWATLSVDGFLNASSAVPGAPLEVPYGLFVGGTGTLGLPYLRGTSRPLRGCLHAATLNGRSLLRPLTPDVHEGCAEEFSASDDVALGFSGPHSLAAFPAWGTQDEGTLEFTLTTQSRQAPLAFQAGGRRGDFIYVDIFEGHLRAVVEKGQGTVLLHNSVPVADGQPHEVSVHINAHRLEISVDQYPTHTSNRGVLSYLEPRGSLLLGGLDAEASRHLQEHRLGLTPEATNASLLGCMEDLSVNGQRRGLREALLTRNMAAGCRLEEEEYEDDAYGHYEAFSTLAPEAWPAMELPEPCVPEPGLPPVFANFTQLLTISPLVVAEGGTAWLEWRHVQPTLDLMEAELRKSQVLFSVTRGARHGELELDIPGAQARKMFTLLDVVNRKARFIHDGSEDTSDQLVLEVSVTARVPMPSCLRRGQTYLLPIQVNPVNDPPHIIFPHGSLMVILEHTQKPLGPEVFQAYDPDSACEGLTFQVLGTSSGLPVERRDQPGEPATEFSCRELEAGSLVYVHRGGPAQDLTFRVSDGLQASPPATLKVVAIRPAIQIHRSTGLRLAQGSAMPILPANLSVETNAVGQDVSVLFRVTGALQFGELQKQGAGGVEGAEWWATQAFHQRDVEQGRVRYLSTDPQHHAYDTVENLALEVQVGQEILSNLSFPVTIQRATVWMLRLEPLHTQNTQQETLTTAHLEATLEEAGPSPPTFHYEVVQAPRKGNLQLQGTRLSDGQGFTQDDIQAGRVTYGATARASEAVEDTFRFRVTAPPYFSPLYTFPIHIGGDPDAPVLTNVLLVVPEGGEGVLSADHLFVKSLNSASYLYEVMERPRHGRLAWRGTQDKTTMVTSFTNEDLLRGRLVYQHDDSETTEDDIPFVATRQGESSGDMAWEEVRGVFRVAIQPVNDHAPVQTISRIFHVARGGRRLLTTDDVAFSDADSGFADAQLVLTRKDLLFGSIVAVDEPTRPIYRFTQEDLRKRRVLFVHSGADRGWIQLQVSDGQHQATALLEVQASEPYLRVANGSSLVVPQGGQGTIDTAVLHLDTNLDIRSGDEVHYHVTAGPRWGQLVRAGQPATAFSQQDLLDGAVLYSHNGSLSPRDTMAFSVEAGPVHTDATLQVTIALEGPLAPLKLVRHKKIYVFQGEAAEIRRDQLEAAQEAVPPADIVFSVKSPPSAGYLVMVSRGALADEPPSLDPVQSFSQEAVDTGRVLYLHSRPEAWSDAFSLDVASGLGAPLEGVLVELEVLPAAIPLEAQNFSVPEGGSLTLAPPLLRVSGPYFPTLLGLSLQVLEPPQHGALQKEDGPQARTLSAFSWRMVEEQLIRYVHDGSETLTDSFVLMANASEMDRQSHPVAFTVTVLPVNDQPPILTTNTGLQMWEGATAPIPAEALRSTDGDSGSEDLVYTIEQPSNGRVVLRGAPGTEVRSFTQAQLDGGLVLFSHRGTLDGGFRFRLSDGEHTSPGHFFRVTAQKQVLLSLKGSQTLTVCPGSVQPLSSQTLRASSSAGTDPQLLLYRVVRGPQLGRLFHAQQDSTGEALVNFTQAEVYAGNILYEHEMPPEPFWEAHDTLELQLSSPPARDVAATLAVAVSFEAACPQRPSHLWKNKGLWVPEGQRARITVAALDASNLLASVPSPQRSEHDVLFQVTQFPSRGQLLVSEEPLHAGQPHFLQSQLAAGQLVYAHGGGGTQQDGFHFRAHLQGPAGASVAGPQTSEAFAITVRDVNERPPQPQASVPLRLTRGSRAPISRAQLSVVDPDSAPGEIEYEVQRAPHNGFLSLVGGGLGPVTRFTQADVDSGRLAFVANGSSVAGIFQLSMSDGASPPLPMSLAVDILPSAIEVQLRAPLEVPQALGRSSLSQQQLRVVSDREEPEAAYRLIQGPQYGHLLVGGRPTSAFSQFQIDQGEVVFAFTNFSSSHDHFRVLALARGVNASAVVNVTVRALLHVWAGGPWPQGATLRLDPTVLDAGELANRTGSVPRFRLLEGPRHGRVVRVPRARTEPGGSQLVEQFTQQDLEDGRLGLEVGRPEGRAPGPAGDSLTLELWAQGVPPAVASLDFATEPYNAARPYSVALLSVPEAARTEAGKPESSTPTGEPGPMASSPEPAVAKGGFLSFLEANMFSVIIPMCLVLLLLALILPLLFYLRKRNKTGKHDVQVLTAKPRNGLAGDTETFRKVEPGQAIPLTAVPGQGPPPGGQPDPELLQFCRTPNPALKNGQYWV

Binder | Kd [1] [nM] | Kd (cynomolgus MCSP D3 [2]) [nM] | Fold increase over parent [3] [fold] | Fold increase over parent (cynomolgus MCSP D3 [4]) [fold] | EC50 of T cell-mediated killing (LDH release), MV-3 cells, human PBMCs E:T 10:1, 21 h [5] [nM] | EC50 of T cell-mediated killing (LDH release), WM266-4 cells, human PBMCs E:T 10:1, 21 h [5] [nM]
B1 | 0.3 | 0.7 | 6.7 | 2.9 | – | –
B2 | 0.9 | 0.8 | 2.2 | 2.5 | – | –
B3 | 0.7 | 0.2 | 28.6 | 10 | – | –
B4 | 0.4 | 0.9 | 5 | 2.2 | – | –
B5 | 1 | 2 | 2 | 1 | – | –
B6 | 0.9 | 1 | 2.2 | 2 | – | –
B7 | 0.4 | 1 | 5 | 2 | – | –
B8 | 0.4 | 1 | 5 | 2 | – | –
B9 | 0.7 | 1 | 2.9 | 2 | – | –
B10 | 0.3 | 0.6 | 6.7 | 3.3 | – | –
B11 | 0.5 | 0.7 | 4 | 2.9 | – | –
B12 | 0.8 | 1 | 2.5 | 2 | – | –
B13 | 0.07 | 0.2 | 28.6 | 10 | – | –
B14 | – | – | – | – | 0.0409 | 0.0284
